# Laboratory results published in the nanobody polyreactivity screen of Harvey et al. (2022).
# Test: yeast display, Sf9 membrane polyspecificity reagent, FACS + sequencing; frameworks hold sequencing errors
# Summary of the method: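 Polyreactivity labels are assigned by the sorting gate from which each nanobody was recovered. The gates were low and high (top ~1%), set on anti-HA fluorescence for expression and streptavidin fluorescence for reagent binding. Before sorting, galactose-induced (36–48 hours) yeast display cells were stained for 1 hour at 4 °C with 10% biotinylated, detergent-solubilized Sf9 membrane reagent.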
row,Sequence,polyreactivity (PSR sort gate)
1,QVQLGESGGGLVQAGGSLRLSCAASGSIFNYYTMGWYRQAPGKERELVAAISSSGGSTYYADSVKGRFTISRDNAKNTVYLQMNSRKPEDTAVYYCAALGRYFTSAGGYWGQGTQVTVSS,high polyreactivity
2,QVQLGESGGGLVQAGGSLRLSCAASGSIFSNYAMGWYRQAPWKERELVATIRLSGGSTYYADSVKGRFTISRDNAKNTVYLQMNSLKPEDTAVYDCAARIHWPYWYARLDYWGQVTQVTVSS,high polyreactivity
3,QVQLGESGGGLVQAGGSLRLSCAASGSIFTGNAMGWYRQAPGKERELVAAITNGGITNYADSVKRRFTISRDNAKNTFYLQMNSLKPEDTAVYYCAADYVDFYSFRRFDYWGQGSQVTVSS,low polyreactivity
4,QVQLGESGGGLVQAGGSLRLSCAASGSTFGGYAMGWYRQAPGKERELVAAISSSGTSTYYADSVKGRFTISRDNAKNTVYLQMNSLKPDDTAVYYCATDFSFFSRFDYWGQGTQVTVSS,low polyreactivity
5,QVQLGESGGGLVQAGGSLRLSCAASGSTFPRNAMGWYRQATGKERELVATITSSGGGTYYADSVKGRFTISRDNAKITVYLQMNSLKPEHTAVYYCNADGPAGDAFDYWGQGTQVTVSS,low polyreactivity
6,QVQLGESGGGLVQAGGSLRLSCAASGSTLRNNAMGWYRQAPGKERELVASIRTRGGSTRYADSVKGRFTISRDNAKNTVYLQMNSLKPEDTAVYYCAAQYYGKGWQLDYWGQGSQVTVSS,high polyreactivity
7,QVQLGESGGGLVQAGGSLRLSCAPSGNNFVGNAMGWCRQAAGKERELVAAIRRSGGTTYYADSVKGRFTISRDNAKNTVYLQMNSLKPEDTAVYYCAASRPYQGDYWGQGTQVTVSS,low polyreactivity
8,QVQLGESGGGLVQAGGSLRLTCAASGGTFKGYAMGWYRQAPGKERELVAAISWSGVRTYYADSVKGRFTISRDNAKNTVYLQMNSLKPEDTAVYYCAASWLLRMGYWGQGTQVTVSS,high polyreactivity
9,QVQLGESGGGLVQAGGSLSLSCAASGITLHNYAMGWYRQAPGKERELVAAISRRGGNTYYADSVKGRFTISRDNAKNTVYLQMNSLIPEDTAVSYCAAYYHGRMDYWGQGTQVTVSS,high polyreactivity
10,QVQLGESGGGLVQEGGSLRLSCAASGRILSRYAKGWYRQAPGKERELVAAISRSGGSTYYADSVKGRFTISRDNAKNTVYLQMNSLKPEDTAVYYWARDVSLSTGYDYWGQGTQVTVSS,high polyreactivity
11,QVQLGESVVCLDQAGVSLPLSCAASGFTFKYYTMRWFRQAPGKERELVAAISRRGGSTYYADSVKGRFTISRDNAKNTVYLQMKSLKPEDTAVYYCAADYRYVSTPYGYDYWGQGTQVTVSS,high polyreactivity
12,QVQLGETRGGLVQAGGSLRLSCAASASIFAPYAMGGYRQAPGKERELVAAITWSGDSTYYADSVKGRFTISRDNAKYTVYLQMNSLKPEDTAVYYCATEEVYGQGNYWGQGTQVTVSS,low polyreactivity
13,QVQLHESGGGLLQAGGGLRLSCAASGSISSTGFMCWYRQAPGKEREPVAAIAPGTTTYYADSVKGRFTISRDNAKNSVYLQKNSLRPEDTAVYYCAVFTDNRVAFLYWGQGTQVTVSS,low polyreactivity
14,QVQLHESGGGLVQAGGSLRLSCAASGTISVTYNMGWYRQAPGKEREFVAGNSTGATTNYADSVKGRFTISRDNAKKTVYLQMNSLKPEDTAVYYCAAHIYRQDHFYYWGQGTQVTVSS,low polyreactivity
15,QVQLHESGGGLVQAGGSLRQSCAASGTISYAGPMGWYRKAPGKEREFVAGIGVGSNTNYADSVKGRYTIIRDNAKNTVYLQMNSLKPEDTAVNYCAVGGYAPLGRPYWGLGTQVTVSS,low polyreactivity
16,QVQLHESGGGLVQPGGGLRLSCAPSGSISSTGFMGWNRKAPGKEREPVAAIAPGTTTYYADSVKGRFTISRDNAKNTVYLQMNSLRPEDTAVYYCAVFTDNRVAFLYWGQGTQVTVSS,low polyreactivity
17,QVQLHESGGVQAGGSLRLSCAASGYISRSDVMGWYRQAPGKERELVATINNGTITYYADSVKGRFTISRDNAKNTVYLQMNSLKPEDTAVHYCAVVQSDTDSLYYWGQGTQVTVSS,low polyreactivity
18,QVQLHESGVGLVQAGGSLRLSCASSGTISYAGPMGWYRQAPGKEREFVAGIGVGSNTNYADSVKGRYTIIRDNAKNTVYLQMNSLKPEDTAVYYCAVGGYAPLGRPYWGQGTQVTVSS,low polyreactivity
19,QVQLHESVGRLVQEGGGLRVSCAASGSISSTGFMGWSRQAPGKEGEPVAAIAPGTTTYYADSVKGRFTISRDNAKNTVYLQMNCLRPEDTAVYYCAVYTDNRVAFLYWGQGTQVTVSS,low polyreactivity
20,QVQLIESGGGLVQAGGSLRLSCAASGIIFYDYAMGWYRQAPGKERELVATITSGGSTNYADSVKGRFTISRDNAKNTVYLQMNSLKPEDTAVYYCAAGRGLILGGVYGYDYWGQGTQVTVSS,low polyreactivity
21,QVQLIESGGGLVQAGGSLRLSCAASGYTFGAYAMGWYRQAPGKERELVAGITFIGGSTYYADSVKGRFTISRDNAKNTVYLQMNSLKPEDTAVYYCAAPIAFGYRGTVAKYGYWGQGTQVTVSS,low polyreactivity
22,QVQLLDSGGGLVQAGGSLRLSCAASGRTIYYYAMGWYRQAPGKEREFVAAIYWHGGSTYYAESVKGRFTISRDNAKNTVYFQMNSLKPEDTAVYYCAAERYDRVGFDYWGQGTQVTVSS,low polyreactivity
23,QVQLLESGAGLVQAGGSLRLSCADSGTFYGYAMGWYRQAPGKERELVAAITWSGGSTYYADSVKGRFTISRDNSKNTVYLQMISLKPEDTAVYYCAASLYSGYDSWGQGTQVTVSS,low polyreactivity
24,QVQLLESGGGIVQAGGSLRLSCAASGRIFVPYAMGWYRQAPGKERELVAAISGRGDSTYYADSVKGRFTISRDNAKNSVYLQMNSLKPEDTAVYYCAKYRPYYTPSYWSRYDYWGQGTQVSVSS,high polyreactivity
25,QVQLLESGGGIVQAGGSLRLSCAASGSTYVIYDMVWYRQAPGKERELVAVITIIGGSTYYADSVKGRFTISRDNAKNTVYLQMISLKPEDTAVYYCNANVIQDYPNYDYWGQGTLVTVSS,low polyreactivity
26,QVQLLESGGGLDQAGGSLRLSSAASGRTFGRNAMGWYRQAPGERELVAVISRGGSTYYADSVKGRFTISRDNAKNTVYLQMNSLKPEDTAVYYCNADTVYTRTAPYDYWGQGTQVTVSS,low polyreactivity
27,QVQLLESGGGLFQAGGSLRLSCAASGLTFYRYAMGWYRKAPGKERELVAAISFSGGSTYYADSVKGRFTISRDNAKNTVYLQMNSLKPEDTAVYYCAASSYPYGYDYWGQGTQVTVSS,high polyreactivity
28,QVQLLESGGGLVKAGGSLRLSCAASGFTFYRYAMGWYRQAPGKERELVATINYSGGGTYYADSVKGRFTISRDNAKHTVYLQMNSLKPEDTAVYDCAAEDFDYAVLYDYWGQGTQVTVSS,high polyreactivity
29,QVQLLESGGGLVPAGGSLRLSWAASGSTLYDYTMGWYRQAPGKERELVAAIRVSGARTFYADSVKGRFTISRDNAKNTVYLQRNSLKPEDTAVYYCAARWYIANPLSPSDYWGQGTQVTVSS,low polyreactivity
30,QVQLLESGGGLVQAGGILRLSCSASGITFSVYDMGCYRQAPGKERELVASISSGGTSTYYADSVKGRFTISRDNAKNTVYFQMNSLKPEDTAVYYGAAYSYFNGDQYSYDYLGQGTQVTVSS,low polyreactivity
